Assay results from patent US20140335016A1.

Molecular target: amyloid-β 1-42 fibers (fAβ42) (human) (UniProt P05067)
Experiment: cell-based or functional assay

Chain of amyloid-β 1-42 fibers (fAβ42) (human) (P05067 672-713 limits assumed): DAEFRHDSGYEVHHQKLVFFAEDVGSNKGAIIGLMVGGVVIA

Which filter trap assay, concentration that reduces aggregates to a similar level does the source give for “M13 filamentous bacteriophage, Construct 2 (wild type M13 isolate, GenBank JX412914.1)” here?
The filter trap assay, concentration that reduces aggregates to a similar level was 1.7 nM.
